Patent US20140065069A1, “Materials and Methods Relating to Cardiovascular Imaging” (KING'S COLLEGE LONDON, priority 2011, published 2014)
“Also recorded” adds a separate entry of the source. No end group written: not given here.

Assays:
[1] = molecular target: T1, tropoelastin (Mus musculus, UniProt P54320); test: In vivo imaging of plaques in HFD fed ApoE−/− mice with gadolinium labelled conjugates; conditions: gadolinium labelled conjugate
T1 construct: from tissue; host or cells: plaque-laden brachiocephalic artery and aortic arch of living HFD-fed ApoE-/- mice
T1 sequence (P54320 28-860): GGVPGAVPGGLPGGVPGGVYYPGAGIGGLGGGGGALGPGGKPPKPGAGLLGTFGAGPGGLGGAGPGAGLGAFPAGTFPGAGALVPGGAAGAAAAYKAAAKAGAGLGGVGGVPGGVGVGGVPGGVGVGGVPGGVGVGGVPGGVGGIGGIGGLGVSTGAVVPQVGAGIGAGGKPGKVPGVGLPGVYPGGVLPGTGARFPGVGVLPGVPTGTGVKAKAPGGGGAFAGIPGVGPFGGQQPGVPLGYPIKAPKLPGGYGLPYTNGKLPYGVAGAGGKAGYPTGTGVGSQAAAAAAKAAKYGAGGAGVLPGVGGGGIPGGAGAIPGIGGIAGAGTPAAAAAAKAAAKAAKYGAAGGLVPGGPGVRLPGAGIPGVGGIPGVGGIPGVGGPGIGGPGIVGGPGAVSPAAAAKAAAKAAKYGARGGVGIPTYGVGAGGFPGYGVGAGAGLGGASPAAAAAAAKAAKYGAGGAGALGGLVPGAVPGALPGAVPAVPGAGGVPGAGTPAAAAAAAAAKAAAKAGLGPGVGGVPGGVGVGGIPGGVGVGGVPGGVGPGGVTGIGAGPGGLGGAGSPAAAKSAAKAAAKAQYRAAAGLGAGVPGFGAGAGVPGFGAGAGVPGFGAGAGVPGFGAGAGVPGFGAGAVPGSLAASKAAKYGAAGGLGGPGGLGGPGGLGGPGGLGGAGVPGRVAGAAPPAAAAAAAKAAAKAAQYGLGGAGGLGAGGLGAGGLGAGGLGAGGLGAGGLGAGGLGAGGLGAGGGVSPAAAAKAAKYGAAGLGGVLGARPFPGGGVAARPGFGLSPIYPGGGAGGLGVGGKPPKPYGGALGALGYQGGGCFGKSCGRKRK
Excerpt: MRI will be performed in a mouse model of progressive atherosclerosis at 4, 8 and 12 weeks post commencement of a high fat diet and in a model of angiotensin-II (Ang-II) induced aortic aneurysm formation at 1, 2, 3 and 4 weeks post Ang-II releasing mini pump implantation. Ten mice will be scanned at each time point either receiving the tropoelastin or TNF-alpha binding contrast agent (CA) resulting in a total of […], respectively. Animals will undergo a pre and post contrast MRI session at each time point and subsequently will be sacrificed for validation with histology, immunostaining, electron and mass spectroscopy.

With “(DOTA-Gd)-VVGSPSAQDEASPLS (not fully specified (N-terminus); printed as (DOTA-Gd)-VVGSPSAQDEASPLS; also: Gd complexed by DOTA)” the “time of imaging post contrast injection” value (12 weeks HFD fed ApoE−/− mice) was no less than 1 h, the biodistribution (HFD fed ApoE−/− mice) was “favourable biodistribution” and the renal clearance (HFD fed ApoE−/− mice) was “rapid renal clearance”. The “uptake in plaque-free carotid artery” value [1] was “no uptake; also recorded: not in the plaque-free carotid artery” and the “uptake in plaque-laden brachiocephalic artery (BCA) and aortic arch” value [1] was “preferential uptake”.

With “K(DOTA-Gd)-YPDHVQYTHY (not fully specified (N-terminus); printed as K(DOTA-Gd)-YPDHVQYTHY; also: Gd complexed by DOTA on the N-terminal Lys) [K-(DOTA-Gd)-YPDHVQYTHY]” the “uptake in plaque-free carotid artery” value [1] was “no uptake” and the “uptake in plaque-laden brachiocephalic artery (BCA) and aortic arch” value [1] was “preferential uptake”.
